Measurements from publication PMC4238058, “Phase transitions of multivalent proteins can promote clustering of membrane receptors” (eLife, 2014).

Columns and labels:
[1] = molecular target: T1, Nck (human, WT, residues 1-377) (human); experiment: ITC; Nck (150 uM) in the syringe titrated into 5 uM p-Nephrin (3pY) or p-TIR (3pY); 25 mM Hepes pH 7.5, 150 mM NaCl, 1 mM MgCl2, 2 mM TCEP; three-site binding model with a single affinity for Nck (NITPIC, Sedphat); the constant is that of one pTyr site; settings: both partners purified
T1 construct: two extra N-terminal residues printed before Met1; Nck, human, WT, residues 1-377; source: E. coli BL21(DE3)T1R, purified (glutathione sepharose, TEV on beads, Source 15Q, Source 15S, SD75)

[2] = molecular target: T2, Nck (cysteine-modified; human, residues 1-377, C139S, C232A, C266S, C340S), fluorophore-labelled (human, C139S (stands in the printed letters) | C232A (stands in the printed letters) | …, maleimide Alexa568 (imaging of association and three color imaging) or Alexa488 (FRAP) on cysteine); experiment: fluorescence (TIRF) microscopy of recruitment to a supported lipid bilayer; His8-p-Nephrin Alexa488 attached to a DOPC bilayer with 1% Ni2+-NTA DOGS; 1 uM Nck Alexa568 alone in solution; 25 mM Hepes pH 7.5, 150 mM NaCl, 1 mM MgCl2, 1 mM BME, 0.1% BSA; settings: both partners purified
T2 construct: extra N-terminal residues printed before Met1, with the only cysteine left in the chain; Nck, human, residues 1-377 with C139S, C232A, C266S, C340S; The methods tell the expression and purification for GST-Nck; that the cysteine-modified form was made the same way is surmised; also called Nck Alexa568; Nck Alexa488; source: E. coli BL21(DE3)T1R, purified; labelled with a maleimide-conjugated …

| Binder | Kd [1] [nM] | binding result [2] |
| --- | --- | --- |
| triply phosphorylated His8-tagged Nephrin cytoplasmic tail (amino acids 1174-1223, Y1183F, Y1210F; pTyr1176, pTyr1193, pTyr1217) (domain or fragment, human, phosphotyrosine at Tyr1176, Tyr1193 and Tyr1217; maleimide Alexa488 on the single cysteine of the linker (bilayer experiments), N-terminal stretch as printed: holds the His8 tag named under tags and the (Gly-Gly-Ser)5 linker with the cysteine that is labelled; Nephrin, human, cytoplasmic tail residues 1174-1223 with Y1183F and Y1210F; also called p-Nephrin; Nephrin3Y (before phosphorylation); source: E. coli BL21(DE3)T1R, purified (Ni-NTA, Source 15Q, SD200); phosphorylated with Lck kinase and purified again (Source 15Q, …)) GGSLEHHHHHHHHGGSCGGSGGSGGSGGSHLYDEVERTFPPSGAWGPLYDEVQMGPWDLHWPEDTFQDPRGIYDQVAGD | 370 | binds |
| triply phosphorylated TIR3Y (His8-tagged human Nephrin tail with its pTyr sites replaced by the pTyr motif of EPEC Tir) (domain or fragment, phosphotyrosine in each of the three Tir motifs (triply phosphorylated); fluorescent in the bilayer experiments, N-terminal stretch as printed: holds the His8 tag named under tags, the Gly-Gly-Ser linker with the cysteine, and HM before the first Tir motif; Nephrin, human, stretch between the first and second pTyr sites; Nephrin, human, stretch between the second and third pTyr sites, with Phe at 1210 as in Nephrin3Y; also called p-TIR; p-TIR (3pY); source: E. coli BL21(DE3)T1R, purified (told for …)) GGSLEHHHHHHHHGGSCGGSGGSGGSGGSHMHIYDEVAADPPPSGAWGHIYDEVAADPWDLHWPEDTFQDPRHIYDEVAADP | 40 |  |
